Data from patent US6645501B2, “Anti-pathogen system and methods of use thereof” (Washington University, priority 1997, dated 2003).

Experiments:
Assay type in all cases: cell-based
Jurkat T cells = assay: Co-transduction of uninfected Jurkat T cells with TAT-CPP32 and TAT-Protease, survival by trypan-blue exclusionary dye microscopy; conditions: 50-100 nM, uninfected Jurkat T cells, 18 hr post-addition
Method: To test for activation of the TAT-CPP32 by TAT-Protease, 2×10^6 Jurkat T cells were placed in 2 ml of culture (RPMI media). To these cells, various combinations of control and experimental transducible proteins were added in 50-100 nM ranges, as follows:
The cells were assayed for survival at 18 hr post-addition by trypan-blue exclusionary dye microscopy. […] Thus, activation of TAT-CPP32 requires the presence of HIV protease.

[1] = test system: Jurkat T-cells infected by HIV (strain NLHX); assay: Killing of HIV-infected Jurkat T-cells, trypan blue exclusion and microscopy; conditions: about 18 hours post-transduction
Method: About 5×10^6 Jurkat T-cells were infected by HIV (strain NLHX; about 1×10^5 to 1×10^6 infectious virus per ml). The cells were propagated in RPMI media. Approximately 4 to 7 days after the infection, the media was removed from the plates and about 35 to 45 nanomoler of the TAT-CPP32 fusion protein was added to the cells. The cells were incubated with the fusion proteins for about 30 minutes to allow transduction into the cells. […] Subsequently, media was added back to the plates and after about 18 hours post-transduction, the cells were examined for cell killing using conventional trypan blue exclusion and microscopy.
Briefly, cells were infected and transduced as described in Example 6 above. Following the transduction, about 1 μg/ml Ritonavir was added to the cell media and allowed to incubate with the cells for about 18 hours. The cells were then assayed for cell killing by conventional trypan blue exclusion and microscopy. […]

[2] = test system: HIV-infected (NLHX strain) and uninfected Jurkat T-cells; assay: FACS analysis of transduction and retention of fusion proteins in HIV-infected and uninfected Jurkat T-cells; conditions: about 35 to 45 nanomoler, about 30 minutes, HIV (NLHX) infected Jurkat culture
Method: To see if p16 fusion proteins could remain in the cell cytosol of the HIV infected cells, the TAT-HIV1,2 p16 fusion proteins produced in Example 3 were purified and labeled with FITC as described above. About 35 to 45 nanomoler of the labeled fusion protein was then added to HIV-infected (NLHX strain) and uninfected Jurkat T-cells in accordance with Example 6 below. The transduced Jurkat T-cells were then analyzed by FACS. All (100%) of cells in a mixed population of HIV infected/uninfected cells were transduced with the p16 protein at 1, 2, 4, 8 and 16 hours post-addition of the FITC conjugated fusion protein. However, when the cells were washed in fresh media and the PTD has driven out of the cells due to the concentration gradient (now high inside and 0 outside), the infected cells retained the cleaved substrate (the p16 portion) but uninfected controls lost all of the transduced protein (it transduced out) as determined by the continued presence of FITC-labeled p16 as analyzed by FACS.
About 5×10^6 Jurkat T-cells were infected by HIV (strain NLHX; about 1×10^5 to 1×10^6 infectious virus per ml). The cells were propagated in RPMI media. Approximately 4 to 7 days after the infection, the media was removed from the plates and about 35 to 45 nanomoler of the TAT-CPP32 fusion protein was added to the cells. […]

B1: TAT-CPP32: HIS-TAT-PTD-HIV2-large subunit of CPP32-HIV1-small subunit of CPP32 fusion protein (protein)
chain: GRKKRRQRRRGYPYDVPDYACTERQANFLGKIWPGISLDNSYKMDYPEMGLCIIINNKNFHKSTGMTSRSGTDVDAANLRETFRNLKYEVRNKNDLTREEIVELMRDVSKEDHSKRSSFVCVLLSHGEEGIIFGTNGPVDLKKITNFFRGDRCRSLTGKPKLFIIQACRGTELDCGIETSQVSQNYPIVQNLQGVDDDMACHKIPVEADFLYAYSTAPGYYSWRNSKDGSWFIQSLCAMLKQYADKLEFMHILTRVNRKVATEFESFSFDATFHAKKQIPCIVSMLTKELYFYH
modifications: left off: small tags and cut ends
notes: HIS-TAT-PTD-HIV2-large subunit of CPP32-HIV1-small subunit of CPP32 fusion protein
- cytotoxicity when added alone (Jurkat T cells): minimal cytotoxicity
- loss of viable cells when added plus TAT-Protease (Jurkat T cells): substantial loss of viable cells
- killing of HIV-infected cells ([1]; about 35 to 45 nanomoler): about all of the infected cells were killed
- killing of uninfected cells in the population [1]: does not kill
- cells transduced by the fusion protein [2]: about 100%
